Substitutions are numbered along the chain they refer to. In names and notes the source's numbering stands. Values belong to the molecule of their own block, whether it stands above or below them.
Tests used:
PP2A A-C dimer [1] = target: T1, PP2A A-C dimer (Homo sapiens, UniProt P67775); assay: pNPPase activity assay; assay type: biochemical; conditions: for stimulation of pNPPase activity of PP2A by PTPA or PTPA mutant: FIG. 6B/6C
T1 construct: GST (N); His8 (N); made in house; C subunit: baculovirus / insect cells; dimer assembled in vitro
Protocol: (§1) The phosphatase activity using pNPP as substrate was performed on a 96-well plate. Briefly, 50 μl of 50 mM pNPP dissolved in 50 mM Tris-HCl (pH 8.2) buffer containing 1 mM DTT, 10 mM MgCl2 and 0.1 mg/ml BSA was added to each well. The reaction was initiated by addition of 10 μl of PP2A samples in the presence or absence of ATP and PTPA. The plate was incubated at 37° C. for 5-20 minutes and the enzymatic reaction product was measured by the absorbance at 405 nm using a plate reader.

[2] = test system: PTPA-PP2A A-C dimer complex; assay: ATPase activity assay (Malachite Green); assay type: biochemical, human; conditions: for ATPase activity: with equi-molar amount of PP2A A-C dimer
Protocol: (§2) Protein samples were prepared in 100 mM NaCl, 20 mM HEPES, pH 7.5, and 2 mM dithiothreitol. The release of free phosphate group was measured by the calorimetric Malachite Green Reagent (BioAssay Systems, Hayward, Calif.) using NaH2PO4 as phosphate standard. The protein concentration was determined by a combination of OD absorption at 280 nm and Bio-Rad Protein Assay (Bio-Rad).

PP2A A-C dimer [3] = target: T1, PP2A A-C dimer; assay: Phosphorylase a phosphatase assay (pSer activity); assay type: biochemical
Protocol: (§3) To measure the phosphatase activity of PP2A, 5 μl of each PP2A sample was added to 45 μl of 0.5 mg/ml of radio-labeled ^32P-phosphorylase b dissolved in 50 mM MOPS buffer containing 1 mM DTT and 5 mM caffeine. Reactions were performed at 37° C. for 10 minutes, and stopped by addition of 10% TCA and 0.5 mg/ml BSA. Samples were kept on ice for 10 minutes to allow complete precipitation of proteins, and were centrifuged for 10 minutes at 14K rpm. Supernatants containing the released ^32P were added to 3 ml Ecosint and the intensity was measured by scintillation counter.

[4] = target: T2, PTPA-PP2A A-C dimer complex (Homo sapiens, UniProt Q15257); assay: ATPase activity assay (Malachite Green); assay type: biochemical; conditions: PTPA alone, without PP2A; 1 mM ATP and 5 mM Mg2+
T2 construct: His6 (C); GST (N); His8 (N); made in house; host or cells: PTPA: E. coli BL21(DE3), pET21b; PP2A C: baculovirus / insect cells
T2 sequence (Q15257 1-323 isoform Q15257-2): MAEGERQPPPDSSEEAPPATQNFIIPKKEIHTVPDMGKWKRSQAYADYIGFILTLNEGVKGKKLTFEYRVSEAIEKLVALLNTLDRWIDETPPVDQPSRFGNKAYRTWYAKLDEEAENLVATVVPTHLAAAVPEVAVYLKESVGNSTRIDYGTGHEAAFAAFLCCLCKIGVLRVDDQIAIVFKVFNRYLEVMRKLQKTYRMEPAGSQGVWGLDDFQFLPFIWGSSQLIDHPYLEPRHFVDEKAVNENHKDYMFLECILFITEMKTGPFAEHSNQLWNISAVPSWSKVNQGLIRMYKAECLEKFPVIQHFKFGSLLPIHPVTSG
Protocol: as §2

PP2A A-C dimer [5] = target: T1, PP2A A-C dimer; assay: Native polyacrylamide gel electrophoresis (native PAGE) binding; conditions: quantification of native-PAGE, FIG. 4C; read-out: dissociation constant between PP2A A-C dimer and PTPA
Protocol: All assays were performed at 4° C. to offset heat generated by electrophoresis. 6% poly-acrylamide (37.5:1 acrylamide:bis-acrylamide) gels were used under the buffer condition of 65 mM Tris, pH 8.5, and 65 mM boric acid. All protein samples were prepared in a 40 μl volume containing 25 mM Tris, pH 8.0, 150 mM NaCl, 2 mM DTT, and 5% glycerol. After pre-running the gels for 15 minutes, half of each sample (20 μl) was loaded into each lane and was subjected to electrophoresis with constant electric field of 15 volts/cm. The gels were stained using coomassie blue, destained, and dried for photography. The gels were scanned by a densitometer, which allowed the estimate of the binding affinity between WT PTPA and PP2A A-C dimer.

PP2A A-C dimer [6] = target: T1, PP2A A-C dimer; assay: Substrate preference of PP2A (phosphorylase b versus pNPP); assay type: biochemical; conditions: for shift of substrate preference of PP2A from phosphorylase b to pNPP: PTPA mutants, FIG. 6F
Protocol: as §1, §3

PP2A A-C dimer [7] = target: T1, PP2A A-C dimer; assay: GST-mediated pull-down assay; assay type: binding; conditions: FIG. 4A; mutants compared with WT PTPA
Protocol: Approximately 30 μg of stoichiometric PP2A A-C dimer were bound to 30 μl of glutathione resin via GST-A protein. The resin was washed with 200 μl assay buffer 3 times to remove excess unbound PP2A. Then 10 μg of WT or mutant PTPA were allowed to bind the resin in a 125-μl volume. After washing 4 times with an assay buffer containing 25 mM Tris, pH 8.0, 150 mM NaCl, and 2 mM dithiothreitol (DTT), the remaining protein and resin were mixed with 15-μl SDS sample buffer and applied to SDS-PAGE. The results were visualized by SDS-polyacrylamide gel electrophoresis (SDS-PAGE) with coomassie staining.

PP2A A-C dimer [8] = target: T1, PP2A A-C dimer; assay: Phosphotyrosine phosphatase assay using a fluorogenic peptide as the substrate; assay type: biochemical; conditions: equi-molar PTPA and PP2A, with ATP/Mg2+, FIG. 6G
Protocol: A protein tyrosine phosphatase assay kit (EMD Biosciences) was used to measure phosphotyrosine phosphatase activity. 50 nM PP2A and PTPA, or PTPA mutants were added to a fluorogenic phosphopeptide substrate (MCA-Gly-Asp-Ala-Glu-pTyr-Ala-Ala-Lys(DNP)-Arg-NH2, 1 μM) and incubated at room temperature under very low light conditions. After 10 minutes of incubation, sodium vanadate solution was added to stop the reaction. […] The fluorescent intensity was monitored at 328 nm (excitation) and 395 nm (emission), using a Hitachi F2500 fluorescence spectrophotometer.

T1 sequence (P30153 whole entry partner): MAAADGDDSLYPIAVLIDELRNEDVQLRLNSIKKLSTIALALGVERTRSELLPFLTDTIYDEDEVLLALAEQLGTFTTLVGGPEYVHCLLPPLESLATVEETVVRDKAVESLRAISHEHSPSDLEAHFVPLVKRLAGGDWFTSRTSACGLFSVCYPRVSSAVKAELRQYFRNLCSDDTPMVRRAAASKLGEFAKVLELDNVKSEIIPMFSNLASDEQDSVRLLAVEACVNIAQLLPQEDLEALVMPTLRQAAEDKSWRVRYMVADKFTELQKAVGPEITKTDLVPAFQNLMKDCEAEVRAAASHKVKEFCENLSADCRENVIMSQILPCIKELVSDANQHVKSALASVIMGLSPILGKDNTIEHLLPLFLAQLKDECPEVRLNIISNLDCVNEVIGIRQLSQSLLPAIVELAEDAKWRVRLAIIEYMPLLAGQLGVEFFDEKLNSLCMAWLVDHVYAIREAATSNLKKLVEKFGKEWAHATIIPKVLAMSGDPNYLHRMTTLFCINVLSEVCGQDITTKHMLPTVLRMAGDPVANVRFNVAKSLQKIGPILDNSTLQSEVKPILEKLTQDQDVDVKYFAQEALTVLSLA
T1 sequence (P67775 whole entry): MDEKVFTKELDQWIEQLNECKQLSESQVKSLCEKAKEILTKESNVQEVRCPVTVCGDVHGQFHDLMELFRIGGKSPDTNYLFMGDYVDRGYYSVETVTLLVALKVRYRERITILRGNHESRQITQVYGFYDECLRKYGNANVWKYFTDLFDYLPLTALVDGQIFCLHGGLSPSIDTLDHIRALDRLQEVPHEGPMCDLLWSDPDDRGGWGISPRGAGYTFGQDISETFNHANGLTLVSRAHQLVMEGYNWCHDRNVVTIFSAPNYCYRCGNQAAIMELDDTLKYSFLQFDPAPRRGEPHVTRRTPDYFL

stimulation of pNPPase activity of PP2A by ATP analog (PP2A A-C dimer [1]; provided to PP2A alone or in the presence of PTPA, FIG. 6B): fails to stimulate
Molecule: Nc1ncnc2c1ncn2[C@@H]1O[C@H](COP(=O)(O)OP(=O)(O)OP(O)(O)=S)[C@@H](O)[C@H]1O [ATPγS, reference compound]

Molecule: C=C1[C@@H](O)[C@@H]2O[C@]3(CC[C@H](/C=C/[C@@H](C)[C@@H]4CC(C)=C[C@@]5(O[C@H](C[C@@](C)(O)C(=O)O)CC[C@H]5O)O4)O3)CC[C@H]2O[C@@H]1[C@@H](O)C[C@H](C)[C@H]1O[C@@]2(CCCCO2)CC[C@H]1C [okadaic acid, reference compound]
inhibition of PTPA/PP2A ATPase activity ([2]; FIG. 5A): inhibited

effect of ATP/Mg2+ on PP2A pSer activity (PP2A A-C dimer [3]; with PTPA or mutants, FIG. 6D): did not effect
Molecule: ATP [ATP/Mg^2+, reference compound]

Kd (PP2A A-C dimer [5]): ~1 µM
shift of substrate preference of PP2A A-C dimer from phosphorylase b to pNPP (PP2A A-C dimer [6]; stoichiometric ratio of 1:1, FIG. 6F): about 10 fold
interaction with PP2A A-C dimer in GST-mediated pull-down (PP2A A-C dimer [7]): formed a stable complex
PP2A pSer/pThr activity relative to PP2A alone (PP2A A-C dimer [3]; about 20-to-1 molar ratio of PTPA to PP2A (maximal reduction), FIG. 6E): approximately 25%
reduction of PP2A pSer activity (PP2A A-C dimer [3]; equi-molar amount of WT PTPA, FIG. 6D): approximately 45%
B1: phosphotyrosyl phosphatase activator (protein, UniProt Q15257 2-358, looked up)
Serine/threonine-protein …: AEGERQPPPDSSEEAPPATQNFIIPKKEIHTVPDMGKWKRSQAYADYIGFILTLNEGVKGKKLTFEYRVSEMWNEVHEEKEQAAKQSVSCDECIPLPRAGHCAPSEAIEKLVALLNTLDRWIDETPPVDQPSRFGNKAYRTWYAKLDEEAENLVATVVPTHLAAAVPEVAVYLKESVGNSTRIDYGTGHEAAFAAFLCCLCKIGVLRVDDQIAIVFKVFNRYLEVMRKLQKTYRMEPAGSQGVWGLDDFQFLPFIWGSSQLIDHPYLEPRHFVDEKAVNENHKDYMFLECILFITEMKTGPFAEHSNQLWNISAVPSWSKVNQGLIRMYKAECLEKFPVIQHFKFGSLLPIHPVTSG
modifications: His6 tag
catalytic turnover rate of ATPase activity ([2]; PTPA with equi-molar PP2A A-C dimer, 1 mM ATP and 5 mM Mg2+): approximately 2 per minute
Km ([2]; equi-molar amount of PP2A and PTPA, FIG. 5B): ~400 µM
ATPase activity ([2]; 1 mM ATP and 5 mM Mg2+): significant ATPase activity
ATPase activity [4]: did not exhibit any detectable ATPase activity
pNPPase activity of PTPA-stimulated PP2A relative to PP2A in the absence of PTPA (PP2A A-C dimer [1]; equi-molar concentrations, with ATP/Mg2+): approximately 6 fold
stimulation of pNPPase activity of PP2A by PTPA or PTPA mutant (PP2A A-C dimer [1]; with ATP/Mg2+): greatly enhanced
stimulation of pTyr phosphatase activity of PP2A (peptide substrate) (PP2A A-C dimer [8]): enhanced phosphotyrosine phosphatase activity
effect on pSer activity of PP2A in titration (PP2A A-C dimer [3]; titrated against a fixed amount of PP2A A-C dimer, FIG. 6E): inhibited the pSer activity of PP2A in a concentration-dependent manor

shift of substrate preference of PP2A from phosphorylase b to pNPP (PP2A A-C dimer [6]): not observed
interaction with PP2A A-C dimer in GST-mediated pull-down (PP2A A-C dimer [7]): did not have a significant effect
B2: G205D: missense mutant of human PTPA (protein, UniProt Q15257 2-358, looked up, variant G205D)
Serine/threonine-protein …: B1 Serine/threonine-protein … with G204D
ATPase activity ([2]; 1 mM ATP and 5 mM Mg2+): significantly lower or undetectable ATPase activity
stimulation of pNPPase activity of PP2A by PTPA or PTPA mutant (PP2A A-C dimer [1]; with ATP/Mg2+): do not stimulate
stimulation of pTyr phosphatase activity of PP2A (peptide substrate) (PP2A A-C dimer [8]): did not stimulate

shift of substrate preference of PP2A from phosphorylase b to pNPP (PP2A A-C dimer [6]): not observed
interaction with PP2A A-C dimer in GST-mediated pull-down (PP2A A-C dimer [7]): significantly compromised binding
B3: V209D: missense mutant of human PTPA (protein, UniProt Q15257 2-358, looked up, variant V209D)
Serine/threonine-protein …: B1 Serine/threonine-protein … with V208D
ATPase activity ([2]; 1 mM ATP and 5 mM Mg2+): significantly lower or undetectable ATPase activity
stimulation of pTyr phosphatase activity of PP2A (peptide substrate) (PP2A A-C dimer [8]): did not stimulate
